Our source for the inhibition of luciferase expression (RLU) under an NFAT response element in Jurkat LAG-3+/NFAT-luc2 effector cells stimulated with anti-CD3 (OKT3, 3 ng/ml) values is US20220220199A1.

This experiment deals with LAG-3 expressed at the surface of Jurkat LAG-3+/NFAT-luc2 effector cells (Promega) (UniProt P18627). In words: cell-based or functional assay.
Chain of LAG-3 expressed at the surface of Jurkat LAG-3+/NFAT-luc2 effector cells (Promega) (P18627 23-525 limits assumed): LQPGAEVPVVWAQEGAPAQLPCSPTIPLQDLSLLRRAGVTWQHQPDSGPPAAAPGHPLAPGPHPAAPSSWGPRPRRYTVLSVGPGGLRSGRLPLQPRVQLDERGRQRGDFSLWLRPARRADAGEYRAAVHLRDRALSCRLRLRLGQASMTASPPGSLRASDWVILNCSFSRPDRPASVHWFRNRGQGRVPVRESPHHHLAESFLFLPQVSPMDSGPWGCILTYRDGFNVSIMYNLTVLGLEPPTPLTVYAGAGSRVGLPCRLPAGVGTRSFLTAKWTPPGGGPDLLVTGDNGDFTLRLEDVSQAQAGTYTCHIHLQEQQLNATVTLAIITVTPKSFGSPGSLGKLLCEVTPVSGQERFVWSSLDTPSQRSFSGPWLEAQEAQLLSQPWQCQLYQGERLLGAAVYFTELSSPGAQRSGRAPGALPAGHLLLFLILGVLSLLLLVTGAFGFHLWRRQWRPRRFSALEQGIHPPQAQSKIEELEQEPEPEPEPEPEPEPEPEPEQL

In the case of “IMP761 (humanized 13E2-human IgG4 Fc antibody)”, the inhibition of luciferase expression (RLU) under an NFAT response element in Jurkat LAG-3+/NFAT-luc2 effector cells stimulated with anti-CD3 (OKT3, 3 ng/ml) came to 37 ng/mL.
